Results as given in patent publication US20170226213A1 (Daiichi Sankyo, published 2017).

Legend:
[1] = target: T1, human FGFR4 (FGF receptor 4) on cells (human, UniProt P22455 22-802); experiment: cell-based or functional assay
[2] = target: T1, human FGFR4 (FGF receptor 4) on cells; experiment: flow cytometry titration on Huh-7 cells
Method: Huh-7 cells (obtained from JCRB Cell Bank) were cultured in DMEM containing 10% FBS under standard conditions at 37° C. and 5% CO₂. Cells were harvested with 5 mM EDTA (in PBS) and 200,000 cells per sample were incubated with indicated anti-FGFR4 antibody (1:3 serial dilution; starting concentration 30 μg/ml) for 30 min at 4° C. After incubation, cells were washed and bound antibody was determined using a Phycoerythrin-labeled anti-human IgG antibody (Jackson Immuno Research). Antibody binding to Huh-7 was measured with a BD Accuri C6 flow cytometer (BD Biosciences, San Jose, Calif.; U.S.A.) and analyzed using the AccuriC6 software. Subsequently, the equilibrium dissociation constant (KD) was determined using Prism (GraphPad Software, La Jolla, Calif., U.S.A.).

[3] = target: T2, extracellular domain of human FGFR4 (myc- and His-tagged) (human, UniProt P22455 22-369); experiment: ELISA, FGFR4 ECD (myc, His) captured by anti-His antibody
T2 construct: extracellular domain; Captured on the plate by a mouse anti-His tag antibody; also called human FGFR4-His/Myc; FGFR4 ECD; not shown: myc and His tags
Method: (§1) Mouse anti-His tag antibody was obtained from Bio-Rad (Hercules, Calif.; U.S.A.) and coated onto MaxiSorp® flat-bottom 96 well ELISA plates (Sigma, St. Louis, Mo.; U.S.A.) at a concentration of 2 μg/ml. After coating, the extracellular domain of human FGFR4 (myc- and His-tagged) was added at a concentration of 0.01 μg/ml. After removal of unbound protein, indicated antiFGFR4 antibody was added (1:4 serial dilution, starting concentration 10 μg/ml) and binding was finally detected with the AttoPhos® AP Fluorescent Substrate System (Promega) using an alkaline-phosphatase coupled goat anti-human IgG F(ab′) fragment on the Fluostar Omega fluorescent plate reader instrument from BMG Labtech (Ortenberg; Germany). Subsequently, dissociation constants were calculated for U4-3, -5 and -9 using Graph Pad Prism (Table 5).

[4] = target: T3, cynomolgus monkey FGFR4 on transfected Hek293 cells (cynomolgus monkey); experiment: flow cytometry titration on transfected Hek293 cells
T3 construct: whole, on cells
Method: Hek293 cells were obtained from CLS (Cell Lines Service, Eppelheim; Germany) and cultured in DMEM containing 10%FBS under standard conditions at 37° C. and 5% CO2. On Day 0, cells were seeded at 4×10⁵ cells/10 cm dish. After 24 h, cells were transfected with plasmids coding for FGFR4 from rat, mouse, human or cynomolgus monkey. Cells were allowed to express the proteins for 48 h and were then dissociated from the dish with 5 mM EDTA in PBS followed by incubation with indicated concentrations of anti-FGFR4 antibody U4-3 or GT-13. Binding was determined using a Phycoerythrin-conjugated anti-human IgG antibody (Jackson Immuno Research Europe). Data was acquired with a BD Accuri C6 flow cytometer (BD Biosciences.) and analyzed using the AccuriC6 software. Antibody titrations experiment (starting concentration 10 μg/ml; 1:3 dilution) allowed calculation of the dissociation constants for the antibodies (see table below).

[5] = target: T4, FGFR4 construct with Ig-like domain 1 (amino acids 22-180) on Hek293 cells (UniProt P22455 22-180); experiment: flow cytometry on Hek293 cells transfected with the FGFR4 (D1) construct, PE-conjugated anti-human IgG
T4 construct: range 22-180; Expressed on transfected Hek293 cells
Method: Hek293 cells were obtained from CLS and cultured in DMEM containing 10% FBS under standard conditions at 37° C. and 5% CO2. On Day 0, cells were seeded and after 24 h cells were transfected with plasmids coding for FGFR4 containing the indicated domain. Cells were allowed to express the proteins for 48 h and were then dissociated from the dish with 5 mM EDTA in PBS followed by incubation with indicated anti-FGFR4 antibody. Binding was determined using a Phycoerythrin-conjugated anti-human IgG antibody (Jackson Immuno Research Europe). Data was acquired with a BD Accuri C6 flow cytometer (BD Biosciences) and analyzed using the AccuriC6 software.

[6] = target: antigen of the Biacore assay (FGFR4; construct not stated) (UniProt P22455 22-369, limits assumed); experiment: Biacore T100, antibody captured by anti-human IgG, antigen injected, bivalent analyte model, KD1, average of 3
Method: Standard amine coupling was applied to prepare a goat anti-human IgG capturing S-CM5 sensor chip (the reference flow cell contained the capturing antibody as well). The carboxymethylated dextran (CMD) surface was activated by injecting a mixture of 200 mM EDC and 50 mM NHS for 7 min (10 μl/min). Subsequently, 30 μg/ml anti-human IgG antibody diluted in 10 mM Na acetate pH 5.0 was injected for 7 minutes (10 μl/min). The remaining unreacted esters were quenched with 1 M Ethanolamine pH 8.5 (7 min, […]). Surface densities of 17892-18376 RU were obtained for the antihuman IgG antibody.
Interaction analyses of antigen with reversibly captured antibody were performed using a Biacore™ T100 instrument (GE Healthcare Bio-Sciences (Piscataway, N.J.; U.S.A.)) at 25° C. in HBS analysis buffer (10 mM HEPES pH 7.4, 150 mM NaCl, 50 μM EDTA, 0.05% Tween 20). 37-38 RU of specific antibody was captured on a flow cell. […] The dissociation was recorded for 10 min at the same flow rate. […]
Data processing (e.g. blank run subtraction) and evaluation was performed by global fitting applying a bivalent analyte binding model using the Biacore T100 Evaluation Software version 2.0.3. The equilibrium dissociation constant KD1 was calculated by dividing kd1 with ka1.

[7] = target: T2, extracellular domain of human FGFR4 …; experiment: ELISA, FGFR4 ECD (myc/His) captured by anti-His antibody, AP-coupled anti-human IgG F(ab') detection
Method: as §1

[8] = target: T1, human FGFR4 (FGF receptor 4) on cells; experiment: cell-based or functional assay; remark: listed apart in the source

Row | Elk1 luciferase reporter gene assay, % of control (+rhFGF 17), Fab at 0.1 µg/ml [1] | Elk1 luciferase reporter gene assay, % of control (+rhFGF 17), Fab at 1 µg/ml [1] | Elk1 luciferase reporter gene assay, % of control (+rhFGF 17), Fab at 10 µg/ml [1] | Kd [2] [pM] | Binder | also measured
1 | 82.2 % of control (+rhFGF 17) | 28.8 % of control (+rhFGF 17) | 20.1 % of control (+rhFGF 17) |  | FGFR4 binding Fab U4-4 (Fab, V domains shown) VH: EVQLLESGGGLVQPGGSLRLSCAASGFTFSSNYMSWVRQAPGKGLEWVSLISGSGGSTYYADSVQGRFTISRDNSKNTLYLQMNSLRAEDTAVYYCARNTAGFGYFDLWGQGTLVTVSS VL: not shown | 
2 | 116 % of control (+rhFGF 17) | 43.2 % of control (+rhFGF 17) | 16.3 % of control (+rhFGF 17) |  | FGFR4 binding Fab U4-5 (Fab, V domains shown) VH: EVQLLESGGGLVQPGGSLRLSCAASGFTFSSNYMNWVRQAPGKGLEWVAVISYDGSNKYYADSVKGRFTISRDNSKNTLYLQMNSLRAEDTAVYYCVTKSRDFWRGPFDYWGQGTLVTVSS VL: not shown | 
3 |  |  |  | 1500 | human anti-FGFR4 antibody U4-5 (antibody, V domains shown, IgG format) VH: EVQLLESGGGLVQPGGSLRLSCAASGFTFSSNYMNWVRQAPGKGLEWVAVISYDGSNKYYADSVKGRFTISRDNSKNTLYLQMNSLRAEDTAVYYCVTKSRDFWRGPFDYWGQGTLVTVSS VL: not shown | Kd [3]: 80 pM
4 |  |  |  | 1600 | human anti-FGFR4 antibody U4-6 (antibody, V domains shown, IgG format) VH: EVQLLESGGGLVQPGGSLRLSCAASGFTFSDYYMNWVRQAPGKGLEWVSAIGGSGDRTYYADSVKGRFTISRDNSKNTLYLQMNSLRAEDTAVYYCALGGSYFGYWGQGTLVTVSS VL: not shown | 
5 | 70.4 % of control (+rhFGF 17) | 39.6 % of control (+rhFGF 17) | 32 % of control (+rhFGF 17) |  | FGFR4 binding Fab U4-1 (Fab, V domains shown) VH: EVQLLESGGGLVQPGGSLRLSCAASGFTFSRNYMSWVRQAPGKGLEWVSAISGSGGSTYYADSVKGRFTISRDNSKNTLYLQMNSLRAEDTAVYYCARVTSPGAFDIWGQGTLVTVSS VL: QSVLTQPPSASGTPGQRVTISCSGGTSNIGTNTVNWYQQLPGTAPKLLIYRNNQRPSGVPDRFSGSKSGTSSSLAISGLRSEDEADYYCAAWDDSLNGPYVVFGGGTKLTVLG | 
6 |  |  |  | 150 | human anti-FGFR4 antibody U4-2 (antibody, V domains shown) VH: EVQLLESGGGLVQPGGSLRLSCAASGFTFSKAWMSWVRQAPGKGLEWVSAISGSGGSTYYADSVKGRFTISRDNSKNTLYLQMNSLRAEDTAVYYCARLYSYGDFDHWGQGTLVTVSS VL: not shown | 
7 | 112 % of control (+rhFGF 17) | 43.8 % of control (+rhFGF 17) | 26.6 % of control (+rhFGF 17) |  | FGFR4 binding Fab U4-2 (Fab, V domains shown) VH: EVQLLESGGGLVQPGGSLRLSCAASGFTFSKAWMSWVRQAPGKGLEWVSAISGSGGSTYYADSVKGRFTISRDNSKNTLYLQMNSLRAEDTAVYYCARLYSYGDFDHWGQGTLVTVSS VL: not shown | 
8 |  |  |  | 460 | human anti-FGFR4 antibody U4-8 (antibody, V domains shown, IgG format) VH: EVQLLESGGGLVQPGGSLRLSCAASGFTFSSNYMSWVRQAPGKGLEWVSSISGSGGRTYYADSVKGRFTISRDNSKNTLYLQMNSLRAEDTAVYYCARMTVFGAATLWGQGTLVTVSS VL: not shown | 
9 |  |  |  |  | human anti-FGFR4 antibody U4-3 (antibody, V domains shown) VH: EVQLLESGGGLVQPGGSLRLSCAASGFTFSDYYMSWIRQAPGKGLEWVSTISGSGGSTYYADSVKGRFTISRDNSKNTLYLQMNSLRAEDTAVYYCARLTAYGHVDSWGQGTLVTVSS VL: not shown | Kd [4]: 320 pM; binding result [5]: no binding
10 |  |  |  | 850 | human anti-FGFR4 antibody U4-1 (antibody, V domains shown) VH: EVQLLESGGGLVQPGGSLRLSCAASGFTFSRNYMSWVRQAPGKGLEWVSAISGSGGSTYYADSVKGRFTISRDNSKNTLYLQMNSLRAEDTAVYYCARVTSPGAFDIWGQGTLVTVSS VL: QSVLTQPPSASGTPGQRVTISCSGGTSNIGTNTVNWYQQLPGTAPKLLIYRNNQRPSGVPDRFSGSKSGTSSSLAISGLRSEDEADYYCAAWDDSLNGPYVVFGGGTKLTVLG | 
11 | 65.2 % of control (+rhFGF 17) | 22.5 % of control (+rhFGF 17) | 12.7 % of control (+rhFGF 17) |  | FGFR4 binding Fab U4-8 (Fab, V domains shown) VH: EVQLLESGGGLVQPGGSLRLSCAASGFTFSSNYMSWVRQAPGKGLEWVSSISGSGGRTYYADSVKGRFTISRDNSKNTLYLQMNSLRAEDTAVYYCARMTVFGAATLWGQGTLVTVSS VL: not shown | 
12 |  |  |  |  | human anti-FGFR4 antibody U4-9 (antibody, V domains shown, IgG format) VH: EVQLLESGGGLVQPGGSLRLSCAASGFTFSDYYMSWIRQAPGKGLEWVSTISGSGGSTYYADSVKGRFTISRDNSKNTLYLQMNSLRAEDTAVYYCARLTAYGHVDSWGQGTLVTVSS VL: not shown | Kd [6]: 120 pM; EC50 (read off the curve) [7]: ~80 pM; Kd [3]: 70 pM; IC50, NIH3T3 spheroid growth assay (CellTiter-Glo) [8]: 10600 pM
13 |  |  |  | 1300 | human anti-FGFR4 antibody U4-7 (antibody, V domains shown, IgG format) VH: EVQLLESGGGLVQPGGSLRLSCAASGFTFSDYYMSWVRQAPGKGLEWVSAISGSGGSTYYADSVKGRFTISRDNSKNTLYLQMNSLRAEDTAVYYCATLATYGPFDDWGQGTLVTVSS VL: not shown | 
14 | 72.6 % of control (+rhFGF 17) | 33.1 % of control (+rhFGF 17) | 16.8 % of control (+rhFGF 17) |  | FGFR4 binding Fab U4-7 (Fab, V domains shown) VH: EVQLLESGGGLVQPGGSLRLSCAASGFTFSDYYMSWVRQAPGKGLEWVSAISGSGGSTYYADSVKGRFTISRDNSKNTLYLQMNSLRAEDTAVYYCATLATYGPFDDWGQGTLVTVSS VL: not shown | 
